The data set deals with the molecule itself. Description: negative-stain TEM; purified refolded DC-SIGN ECD, negative staining, Jeol JEM-1230.

B1: dendritic cell-specific intercellular adhesion molecule 3-grabbing non-integrin (DC-SIGN) full extracellular domain, tetramer (domain or fragment, UniProt Q9NNX6 70-404, looked up)
chain: EQSRQDAIYQNLTQLKAAVGELSEKSKLQEIYQELTQLKAAVGELPEKSKLQEIYQELTRLKAAVGELPEKSKLQEIYQELTWLKAAVGELPEKSKMQEIYQELTRLKAAVGELPEKSKQQEIYQELTRLKAAVGELPEKSKQQEIYQELTRLKAAVGELPEKSKQQEIYQELTQLKAAVERLCHPCPWEWTFFQGNCYFMSNSQRNWHDSITACKEVGAQLVVIKSAEEQNFLQLQSSRSNRFTWMGLSDLNQEGTWQWVDGSPLLPSFKQYWNRGEPNNVGEEDCAEFSGNGWNDDKCNLAKFWICKKSAASCSRDEEQFLSPAPATPNPPPA
notes: DC-SIGN, full extracellular domain (ECD), residues 70-404; the fragment was inserted in pET15b via NdeI and BamHI, and the protein was purified on mannose-Sepharose, not by a tag; The results call it 'tetrameric full-length DC-SIGN', the methods give the ECD 70-404; also called DC-SIGN tetramer; tetrameric DC-SIGN
For B1, the stoichiometry N (as a rule, a count of units in the complex or per binding partner) is 4.

The values above are taken from PMC6631030, “Unraveling Sugar Binding Modes to DC-SIGN by Employing Fluorinated Carbohydrates” (Molecules, 2019).
